Substitutions are numbered along the chain they refer to. Names and notes keep the numbering of the source.
T1: FcγRIIb (UniProt P31994 46-217, limits assumed)
T1 sequence (looked up): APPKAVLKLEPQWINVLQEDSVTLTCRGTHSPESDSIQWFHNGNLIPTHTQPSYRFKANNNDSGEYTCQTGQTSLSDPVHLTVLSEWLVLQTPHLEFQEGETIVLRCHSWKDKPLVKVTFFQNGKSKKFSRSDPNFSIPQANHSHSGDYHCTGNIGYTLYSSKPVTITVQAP

B1: G1025 (Fc fusion)
chain: EPKSCDKTHTCPPCPAPELLGGDSVFLFPPKPKDTLMISRTPEVTCVVVDVEFEDPEVKFNWYVDGVEVHNAKTKPREEQYNSTYRVVSVLTVLHQDWLNGKEYKCKVTNKALPAPIEKTISKAKGQPREPQVYTLPPSRDELTKNQVSLTCLVKGFYPSDIAVEWESNGQPENNYKTTPPVLDSDGSFFLYSKLTVDKSRWQQGNVFSCSVMHEALHNHYTQKSLSLSPGKERKCCVECPPCP
notes: G045c background, P238D/S267E/H268F/S324T; leader 1-20 cleaved
B2: G1042 (Fc fusion)
chain: B1 chain with E18P, G21R, D23P, L113F
notes: G045c background, E233P/G236R/S267E/H268F/S324T/L328F; leader 1-20 cleaved
B3: G1027 (Fc fusion)
chain: B1 chain with N82A
notes: G045c background, P238D/S267E/H268F/N297A/S324T; leader 1-20 cleaved
B4: G1006 (Fc fusion)
chain: B1 chain with D23P, D50A
notes: G045c background, D265A/S267E/H268F/S324T; leader 1-20 cleaved
B5: G1046 (Fc fusion)
chain: B1 chain with D50W, D141E, L143M
notes: G045c background, P238D/D265W/S267E/H268F/S324T; leader 1-20 cleaved
B6: G1043 (Fc fusion)
chain: B1 chain with D50G, D141E, L143M
notes: G045c background, P238D/D265G/S267E/H268F/S324T; leader 1-20 cleaved
B7: G1024 (Fc fusion)
chain: ERKCCVECPPCPEPKSCDKTHTCPPCPAPELLGGDSVFLFPPKPKDTLMISRTPEVTCVVVDVEFEDPEVKFNWYVDGVEVHNAKTKPREEQYNSTYRVVSVLTVLHQDWLNGKEYKCKVTNKALPAPIEKTISKAKGQPREPQVYTLPPSREEMTKNQVSLTCLVKGFYPSDIAVEWESNGQPENNYKTTPPVLDSDGSFFLYSKLTVDKSRWQQGNVFSCSVMHEALHNHYTQKSLSLSPGK
notes: G019 background, P238D/S267E/H268F/S324T
B8: G1045 (Fc fusion)
chain: B1 chain with D50P
B9: G1031 (Fc fusion)
chain: B1 chain with E18P, G21R, D23P, D50A, N82A
B10: G1109 (Fc fusion)
chain: B1 chain with E18P, D23P
notes: G045c background, E233P/S267E/H268F/S324T; leader 1-20 cleaved
B11: G1071d2 (Fc fusion)
chain: B1 chain with D23P, E52S, T84A
notes: G045c background, H268F/S324T/T299A; leader 1-20 cleaved
B12: G1132 (Fc fusion)
chain: B1 chain with D23P, E52R, N82A
notes: G045c background, S267R/H268F/S324T/N297A; leader 1-20 cleaved
B13: G1123 (Fc fusion)
chain: B1 chain with E18P, G21Q, D23P, E52R
notes: G045c background, E233P/G236Q/S267R/H268F/S324T; leader 1-20 cleaved
B14: G1119 (Fc fusion)
chain: B1 chain with E18P, G21R, D23P, E52K
notes: G045c background, E233P/G236R/S267K/H268F/S324T; leader 1-20 cleaved
B15: G999 (Fc fusion)
chain: B7 chain with G33R, D35P, E153D, M155L
notes: G019 background, G236R/S267E/H268F/S324T
B16: G1001 (Fc fusion)
chain: B7 chain with D35P, N94A
notes: G019 background, S267E/H268F/S324T/N297A
B17: G1047 (Fc fusion)
chain: B1 chain with L113F
B18: G1044 (Fc fusion)
chain: B1 chain with D50C
B19: G1048 (Fc fusion)
chain: B7 chain with G33R, D35P, L125F
notes: G019 background, G236R/L328F/S267E/H268F/S324T

molecular target: FcγRIIIa (UniProt P08637 17-208); experiment: BLI (Octet); legend: - indicates no binding
Sequence (P08637 17-208 limits assumed): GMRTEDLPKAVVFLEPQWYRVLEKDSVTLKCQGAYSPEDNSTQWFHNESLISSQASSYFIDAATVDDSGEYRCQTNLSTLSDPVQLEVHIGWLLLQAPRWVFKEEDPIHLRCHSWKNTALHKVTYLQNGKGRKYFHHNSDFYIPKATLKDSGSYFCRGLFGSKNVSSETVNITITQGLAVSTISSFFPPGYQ
Experimental: (§1) Binding of complement-preferential stradomers or parent stradomer G045c to FcγRI, FcγRIIb, FcγRIIIa, FcγRIIa, or FcRn was assessed. RU values of dissociation were measured by biolayer interferometry using a ForteBio Octet instrument. His-tagged receptor proteins were bound to the sensor tip in 1× kinetic analysis buffer from ForteBio after which the on rate of the receptor/protein was measured by transferring the sensor tip to a 1× kinetics buffer containing the purified stradomer of choice. Off rate was measured by transferring the sensor tip to a 1× kinetics buffer, and RU value was calculated from the measured maximum binding using the ForteBio software. Biolayer interferometry detects the binding between a ligand immobilized on the biosensor tip surface and an analyte in solution. When binding occurs it produces an increase in optical thickness at the biosensor tip, which results in a wavelength shift (detected as a response unit of “RU”). The maximum binding level (RU max) is the maximum possible amount of sample binding at equilibrium that saturates the amount of ligand on the sensor surface. The RU 300 is the residual sample binding after 300 seconds of dissociation and is useful to characterize the rate of dissociation of the test article from the test ligand.

| binding result | Binder |
| --- | --- |
| no binding | B1 |
| no binding | B2 |
| no binding | B3 |
| no binding | B4 |
| no binding | B5 |
| no binding | B6 |

molecular target: T2, C1q (UniProt P02745 23-245; P02746 28-253; P02747 29-245); experiment: ELISA on coated C1q
T2 construct: bought C1q coated on ELISA plates at 1 µg/ml; also called complement C1q; complement factor C1q
T2 sequence (P02745 23-245 limits assumed, chain 1 of 3): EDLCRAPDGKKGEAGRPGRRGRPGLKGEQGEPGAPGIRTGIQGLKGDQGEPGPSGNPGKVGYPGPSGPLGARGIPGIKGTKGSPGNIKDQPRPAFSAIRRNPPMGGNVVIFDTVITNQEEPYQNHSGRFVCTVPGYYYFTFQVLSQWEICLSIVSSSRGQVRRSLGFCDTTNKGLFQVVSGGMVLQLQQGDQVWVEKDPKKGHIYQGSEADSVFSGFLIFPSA
T2 sequence (P02746 28-253 limits assumed, chain 2 of 3): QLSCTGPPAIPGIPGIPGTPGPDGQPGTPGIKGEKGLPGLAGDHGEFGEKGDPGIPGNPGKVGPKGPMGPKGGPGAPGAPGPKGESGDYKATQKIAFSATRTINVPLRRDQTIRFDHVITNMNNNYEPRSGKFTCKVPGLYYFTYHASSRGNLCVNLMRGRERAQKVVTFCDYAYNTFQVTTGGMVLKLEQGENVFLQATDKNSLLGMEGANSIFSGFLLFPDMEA
T2 sequence (P02747 29-245 limits assumed, chain 3 of 3): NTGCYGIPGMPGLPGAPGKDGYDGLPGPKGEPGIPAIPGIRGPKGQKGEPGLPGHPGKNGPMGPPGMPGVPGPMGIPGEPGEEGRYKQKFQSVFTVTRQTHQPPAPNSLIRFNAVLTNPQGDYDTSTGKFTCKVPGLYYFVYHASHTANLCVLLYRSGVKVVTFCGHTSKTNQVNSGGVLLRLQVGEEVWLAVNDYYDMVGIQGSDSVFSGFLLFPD

| binding result | Binder |
| --- | --- |
| no binding | B7 |
| no binding | B8 |
| no binding | B9 |

molecular target: T2, C1q; experiment: ELISA on coated C1q; remark: another data set of the same source
Experimental: (§2) For C1q binding, 96 well plates were coated with C1q (Sigma Cat #: C1740 1 μg/ml) overnight in PBS. After coating, plates were washed 3 times with standard wash buffer (iX PBS+0.05% Tween 20) and blocked with blocking buffer (1% BSA+1× PBS+0.05% Tween 20) for 2 hours at RT. Following blocking, plates were incubated with compound diluted in blocking buffer 100 μL/well and washed 3 times with standard washing buffer. C1q-bound compound was detected by incubation with 1:5000 biotinylated mouse anti-human IgG1(Cat #555869, BD Biosciences) and Streptavidin-HRP (Cat #: 7100-05 Southern Biotech) (100 μl/well) for 1 hour at room temperature followed by washing 3 times with washing buffer, after which color was developed using the standard TMB method according to manufacturer's protocol for 15 minutes. Absorbance was read at 450 nm.
(§3) For each stradomer in Tables 5-9, the level of canonical FcγR binding, complement C1q binding, and CDC inhibition were determined according to the methods described in Example 1.

| binding result | Binder |
| --- | --- |
| binds | B10 |
| binds | B11 |
| binds | B12 |
| binds | B13 |
| binds | B14 |

molecular target: T3, FcγRI (UniProt P12314 16-288); experiment: BLI (Octet)
T3 construct: also called CD64
T3 sequence (P12314 16-288 limits assumed): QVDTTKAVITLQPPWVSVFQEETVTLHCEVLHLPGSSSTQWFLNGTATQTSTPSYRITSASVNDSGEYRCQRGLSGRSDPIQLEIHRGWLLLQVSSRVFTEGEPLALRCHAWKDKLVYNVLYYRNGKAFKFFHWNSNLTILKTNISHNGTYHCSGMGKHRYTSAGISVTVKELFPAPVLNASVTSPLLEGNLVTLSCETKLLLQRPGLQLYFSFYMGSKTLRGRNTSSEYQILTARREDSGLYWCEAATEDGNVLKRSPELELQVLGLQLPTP
Experimental: as §1

| binding result | Binder |
| --- | --- |
| binds | B1 |
| binds | B2 |
| binds | B3 |
| binds | B4 |
| binds | B5 |
| binds | B6 |

molecular target: T1, FcγRIIb; experiment: BLI (Octet)
Experimental: as §1

| binding result | Binder |
| --- | --- |
| binds | B1 |
| binds | B2 |
| binds | B3 |
| binds | B4 |
| binds | B6 |

molecular target: T3, FcγRI; experiment: BLI (Octet); remark: another data set of the same source

| binding result | Binder |
| --- | --- |
| binds | B15 |
| binds | B16 |
| binds | B8 |
| binds | B17 |
| binds | B18 |

molecular target: T1, FcγRIIb; experiment: BLI (Octet); remark: another data set of the same source

| binding result | Binder |
| --- | --- |
| binds | B15 |
| binds | B17 |

molecular target: T2, C1q; experiment: ELISA on coated C1q; remark: another data set of the same source

| binding result | Binder |
| --- | --- |
| no binding | B15 |
| no binding | B16 |
| no binding | B19 |
| no binding | B18 |

molecular target: T3, FcγRI; experiment: BLI (Octet); remark: another data set of the same source
Experimental: as §1, §3

| binding result | Binder |
| --- | --- |
| binds | B10 |
| binds | B11 |
| binds | B12 |
| binds | B13 |
| binds | B14 |

molecular target: T1, FcγRIIb; experiment: BLI (Octet); remark: another data set of the same source
Experimental: as §1, §3

| binding result | Binder |
| --- | --- |
| binds | B10 |
| binds | B11 |

molecular target: T2, C1q; experiment: ELISA on coated C1q; remark: another data set of the same source
Experimental: as §2

| binding result | Binder |
| --- | --- |
| binds | B1 |
| binds | B2 |
| binds | B3 |
| binds | B4 |
| binds | B5 |
| binds | B6 |
